Source: patent US20050025779A1

What was measured:
Assay in all cases: cell-based or functional assay
[1] = target: amphotropic murine leukemia virus envelope protein, on pseudotyped virus (amphotropic murine leukemia virus)
[2] = target: HIV-1 NL4-3 envelope glycoprotein, on pseudotyped virus (HIV-1)
[3] = target: HIV-1 92HT594 envelope glycoprotein, on pseudotyped virus (HIV-1)
[4] = target: HIV-1 JRCSF envelope glycoprotein, on pseudotyped virus (HIV-1)

Substance | IC50 of virus infectivity (neutralization), U87 CD4/CCR5 cells [1] | IC50 of virus infectivity (neutralization), U87 CD4/CXCR4 cells [1] | IC50 of virus infectivity (neutralization), U87 CD4/CXCR4 cells [2] | IC50 of virus infectivity (neutralization), U87 CD4/CCR5 cells [3] | IC50 of virus infectivity (neutralization), U87 CD4/CXCR4 cells [3] | IC50 of virus infectivity (neutralization), U87 CD4/CCR5 cells [4]
monoclonal antibody 2F5 | > 50 µg/mL | > 50 µg/mL | 0.477 µg/mL | 0.857 µg/mL | 0.748 µg/mL | 2.1 µg/mL
monoclonal antibody 2G12 | > 50 µg/mL | > 50 µg/mL | 0.473 µg/mL | 1.94 µg/mL | 2.39 µg/mL | 0.764 µg/mL
monoclonal antibody 4E10 | > 50 µg/mL | > 50 µg/mL | 1.42 µg/mL | 2.94 µg/mL | 2.67 µg/mL | 7.91 µg/mL
